Results on 2 molecules are retold here after PMC7658645, “Aptamer-Based Western Blot for Selective Protein Recognition”.

One data set has as its target Maltose-binding protein (Escherichia coli (strain K12), UniProt P0AEX9 27-396). Description: Western blot, SDS-denatured protein on nitrocellulose. The settings on record: label: 5'-Cy5.5. On the technique in general: Immunoblotting shows a protein as a band on a membrane.
In another data set the target is histone H4 (UniProt P62805 2-103). Description: aptamer blot; on nitrocellulose; all four histone types labeled without selectivity; Dot blot/aptamer blot: 20 mM Tris-HCl, 100 mM NaCl, 5 mM MgCl2, 0.1% BSA (pH not given), 50 nM aptamer in dot blot (membranes equilibrated at 4 C), blots 1 h af.

B1: G1 (ssDNA)
DNA: ATACGACTCACTATTAGGGACAAAGCTGACAACCCTTTCATAATCTAACTACATTTATGTGCTAGACTACTGACTAC
With B1, in the data set with Maltose-binding protein, the binding result is recorded as “no binding”.
With GAGTGTGGTTCCCGGGAGGGCGCCTACGGGTCCCGTATTCGGATTTGTGC (ssDNA) [3.13], the binding result with histone H4 was “binds”.
